Experimental data reported in IntAct's records for PubMed 21295698.

Biological target: ogt1_human OGT (UniProt O15294)
Sequence of UniProt O15294 (O15294 whole entry): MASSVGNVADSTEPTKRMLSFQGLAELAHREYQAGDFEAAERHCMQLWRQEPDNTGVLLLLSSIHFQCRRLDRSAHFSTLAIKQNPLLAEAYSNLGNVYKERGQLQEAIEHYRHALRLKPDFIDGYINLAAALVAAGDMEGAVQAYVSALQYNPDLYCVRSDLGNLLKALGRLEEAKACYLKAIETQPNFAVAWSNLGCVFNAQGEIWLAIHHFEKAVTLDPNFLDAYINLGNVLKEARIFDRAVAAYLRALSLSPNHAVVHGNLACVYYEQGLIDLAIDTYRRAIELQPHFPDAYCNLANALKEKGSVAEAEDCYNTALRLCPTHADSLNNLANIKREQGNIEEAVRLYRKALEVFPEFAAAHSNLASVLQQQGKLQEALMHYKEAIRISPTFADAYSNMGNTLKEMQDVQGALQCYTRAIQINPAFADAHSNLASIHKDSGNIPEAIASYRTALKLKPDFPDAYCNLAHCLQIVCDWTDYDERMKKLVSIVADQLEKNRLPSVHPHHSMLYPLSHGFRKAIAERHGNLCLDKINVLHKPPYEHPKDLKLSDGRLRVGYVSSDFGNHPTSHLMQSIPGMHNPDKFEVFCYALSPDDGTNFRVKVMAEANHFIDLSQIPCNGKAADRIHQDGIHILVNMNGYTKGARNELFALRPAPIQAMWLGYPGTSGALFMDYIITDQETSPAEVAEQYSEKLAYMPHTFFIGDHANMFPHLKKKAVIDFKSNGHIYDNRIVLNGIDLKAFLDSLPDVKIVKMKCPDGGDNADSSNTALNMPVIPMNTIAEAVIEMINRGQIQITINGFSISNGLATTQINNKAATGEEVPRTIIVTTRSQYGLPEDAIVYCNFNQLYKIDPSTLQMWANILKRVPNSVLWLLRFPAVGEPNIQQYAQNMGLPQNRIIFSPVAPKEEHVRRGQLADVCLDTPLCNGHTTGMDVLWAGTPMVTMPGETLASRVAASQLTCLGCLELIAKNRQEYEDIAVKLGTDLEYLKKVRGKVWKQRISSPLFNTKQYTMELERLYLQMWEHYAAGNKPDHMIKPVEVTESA

effect of a mutation on the interaction | Substance
increasing interaction | Host cell factor 1 (Homo sapiens), P51610 E1081A

Biological target: ogt1_human OGT (UniProt O15294)
Remark: another data set of the same source

effect of a mutation on the interaction | Substance
disrupting interaction | Host cell factor 1 (Homo sapiens), P51610 E1081A
decreasing interaction | Host cell factor 1 (Homo sapiens), P51610 T1085A
decreasing interaction | Host cell factor 1 (Homo sapiens), P51610 N1077A
disrupting interaction | Host cell factor 1 (Homo sapiens), P51610 T1090A

Second part, the substance before the results:

Substance | effect of a mutation on the interaction
Host cell factor 1 (Homo sapiens), P51610 C1080A | decreasing interaction
Host cell factor 1 (Homo sapiens), P51610 T1088A | disrupting interaction
Host cell factor 1 (Homo sapiens), P51610 T1087A | disrupting interaction
Host cell factor 1 (Homo sapiens), P51610 P1079A | decreasing interaction
Host cell factor 1 (Homo sapiens), P51610 H1083A | decreasing interaction
Host cell factor 1 (Homo sapiens), P51610 T1082A | decreasing interaction
Host cell factor 1 (Homo sapiens), P51610 P1078A | decreasing interaction
Host cell factor 1 (Homo sapiens), P51610 T1092A | disrupting interaction
Host cell factor 1 (Homo sapiens), P51610 C1075A | decreasing interaction
